Where no end group is shown, it is not given here.
B1: Phage-2607 (peptide)
peptide: QMKLCIPQWMCVDH
modifications: cysteine pairing not given here; also: displayed on phage as pIII fusion, linker and pIII sequence not given here
notes: Clonal phage of the peptide-180 library; not shown: fused to pIII of the bacteriophage
B2: Phage-2585 (peptide)
peptide: DLKRCIPDWMCAVA
modifications: cysteine pairing not given here; also: fused to phage pIII, linker and fusion site not given here
notes: Clonal phage displaying the peptide, tested as crude supernatant; also called peptide-180 library clone; not shown: fused to the pIII filament protein of the bacteriophage
B3: Phage-2612 (peptide)
peptide: FANWCTPSWMCVGM
modifications: cysteine pairing not given here; also: displayed on phage pIII, linker not given here
notes: as for B1
B4: Phage-2581 (peptide)
peptide: SEKWCIPEWMCMYA
notes: as for B2
B5: Phage-2583 (peptide)
peptide: EVMWCRPAWMCDGI
notes: as for B2
B6: Phage-2578 (peptide)
peptide: LQEWCIPPWMCIKS
notes: as for B2
B7: Phage-2604 (peptide)
peptide: VWQLCIPPWMCQFE
modifications: cysteine pairing not given here; also: displayed on phage as pIII fusion, linker and pIII sequence not given here
notes: as for B1
B8: Phage-2584 (peptide)
peptide: VVKWCKPAWMCEQA
notes: as for B2
B9: Phage-2605 (peptide)
peptide: VMKWCTPSWMCEHI
modifications: cysteine pairing not given here; also: displayed on phage as pIII fusion, linker and pIII sequence not given here
notes: as for B1
B10: Phage-2613 (peptide)
peptide: MYNLCTPEWMCAGF
modifications: cysteine pairing not given here; also: displayed on phage pIII, linker not given here
notes: as for B1
B11: Phage-2611 (peptide)
peptide: VEKWCIPEWMCETS
modifications: cysteine pairing not given here; also: displayed on phage pIII, linker not given here
notes: as for B1
B12: Phage-2616 (peptide)
peptide: QDNWCIPRWMCEAM
modifications: cysteine pairing not given here; also: displayed on phage pIII, linker not given here
notes: as for B1
B13: Phage-2618 (peptide)
peptide: AFKWCIPNWMCASQ
modifications: cysteine pairing not given here; also: fused to phage pIII (clonal phage display)
notes: as for B1
B14: Phage-2579 (peptide)
peptide: GPKWCTPPWMCWEF
notes: as for B2
B15: Phage-2587 (peptide)
peptide: VGKWCVPMWMCATD
modifications: cysteine pairing not given here; also: fused to phage pIII, linker and fusion site not given here
notes: as for B2
B16: Phage-2577 (peptide)
peptide: LTNWCTPSWMCYGL
notes: as for B2
B17: Phage-2580 (peptide)
peptide: GVKWCTPAWMCEWT
notes: as for B2
B18: Phage-2606 (peptide)
peptide: VDKWCIPAWMCDRS
modifications: cysteine pairing not given here; also: displayed on phage as pIII fusion, linker and pIII sequence not given here
notes: as for B1
B19: Phage-2615 (peptide)
peptide: HEKWCIPPWMCEAN
modifications: cysteine pairing not given here; also: fused to phage pIII (clonal phage display)
notes: as for B1
B20: Phage-2608 (peptide)
peptide: LHKLCIPEWMCEYY
modifications: cysteine pairing not given here; also: displayed on phage as pIII fusion, linker and pIII sequence not given here
notes: as for B1
B21: Phage-2582 (peptide)
peptide: EGKWCIPEWMCISV
notes: as for B2
B22: Phage-2614 (peptide)
peptide: HVNWCTPKWMCSGF
modifications: cysteine pairing not given here; also: displayed on phage pIII, linker not given here
notes: as for B1
B23: Phage-2586 (peptide)
peptide: ETQMCVPQWMCWGI
notes: as for B2
B24: Phage-2617 (peptide)
peptide: YTPWCKPAWMCSVS
modifications: cysteine pairing not given here; also: displayed on phage pIII, linker not given here
notes: as for B1
B25: Phage-2610 (peptide)
peptide: SSMLCIPPWMCEQS
modifications: cysteine pairing not given here; also: displayed on phage as pIII fusion, linker and pIII sequence not given here
notes: as for B1
B26: Phage-2609 (peptide)
peptide: MVKWCTPAWMCTLE
modifications: cysteine pairing not given here; also: displayed on phage as pIII fusion, linker and pIII sequence not given here
notes: as for B1

Legend:
[1] = molecular target: T1, PSMA Fab (biotinylated (site not stated)); test: clonal phage ELISA on captured PSMA Fab, wells pre-incubated with PSMA antigen as competitor; column meaning inferred
T1 construct: also called Anti-PSMA Fab; 006 PSMA Fab

[2] = molecular target: T1, PSMA Fab; test: clonal phage ELISA on biotinylated PSMA Fab captured on neutravidin plates, anti-M13 HRP detection;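 note: crude clonal phage supernatants tested, before phage were added, wells were pretreated with PSMA antigen in blocking buffer or with blocking buffer only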
Method: (§1) Clonal phage were harvested as crude supernatants and screened via standard ELISAs. […] Prior to the addition of clonal phage. wells were incubated with blocking buffer and PSMA antigen or blocking buffer alone. Without washing or aspirating, clonal phage supernatants were then added to the wells and incubated for a short time. Wells were then washed followed by detection of bound phage using a horse radish conjugated anti-M13 antibody.

[3] = molecular target: T2, PSMA Fab (biotinylated (site not stated)); test: clonal phage ELISA on biotinylated PSMA Fab captured on neutravidin plates, blocking buffer alone, anti-M13-HRP detection
T2 construct: also called Anti-PSMA Fab; 006 PSMA Fab

[4] = molecular target: T2, PSMA Fab; test: clonal phage ELISA on captured PSMA Fab pre-incubated with PSMA antigen (competitor: PSMA), anti-M13-HRP detection
Method: as §1

[5] = molecular target: T3, PSMA Fab (biotinylated (site not stated)); test: clonal phage ELISA; biotinylated PSMA Fab on neutravidin plate; bound phage detected with anti-M13-HRP
T3 construct: also called Anti-PSMA Fab; 006 PSMA Fab

[6] = molecular target: T3, PSMA Fab; test: clonal phage ELISA; PSMA Fab wells pre-incubated with PSMA antigen as competitor; anti-M13-HRP detection
Method: as §1

| Binder | Phage binding ELISA signal, Anti-PSMA Fab in presence of PSMA antigen [1] | Phage binding ELISA signal, Anti-PSMA Fab [2] | phage binding ELISA signal [3] | phage binding ELISA signal in presence of PSMA [4] | other results |
| --- | --- | --- | --- | --- | --- |
| B1 | 0.0553 | 1.03 | – | – | – |
| B2 | – | – | 1.07 | 0.0617 | – |
| B3 | 0.0676 | 1.02 | – | – | – |
| B4 | – | – | 1.08 | 0.0532 | – |
| B5 | – | – | 1.07 | 0.0623 | – |
| B6 | – | – | 1.09 | 0.0797 | – |
| B7 | 0.113 | 1.03 | – | – | – |
| B8 | – | – | 1.07 | 0.0788 | – |
| B9 | 0.0582 | 1.03 | – | – | – |
| B10 | 0.0554 | 1.02 | – | – | – |
| B11 | 0.0624 | 1.02 | – | – | – |
| B12 | 0.0626 | 1.01 | – | – | – |
| B13 | 0.0999 | 1.01 | – | – | – |
| B14 | – | – | 1.08 | 0.331 | – |
| B15 | – | – | 1.06 | 0.0735 | – |
| B16 | – | – | 1.09 | 0.0817 | – |
| B17 | – | – | 1.08 | 0.0707 | – |
| B18 | 0.0604 | 1.03 | – | – | – |
| FHMWCTPAWMCADQ (cysteine pairing not given here; also: displayed on phage as pIII fusion) [Phage-2622] | – | – | – | – | Phage binding ELISA signal, Anti-PSMA Fab [5]: 0.996; Phage binding ELISA signal, Anti-PSMA Fab with PSMA antigen [6]: 0.126 |
| B19 | 0.0603 | 1.01 | – | – | – |
| IANWCTPQWMCDGF [Phage-2620] | – | – | – | – | Phage binding ELISA signal, Anti-PSMA Fab [5]: 0.997; Phage binding ELISA signal, Anti-PSMA Fab with PSMA antigen [6]: 0.0631 |
| B20 | 0.0595 | 1.03 | – | – | – |
| B21 | – | – | 1.08 | 0.0637 | – |
| B22 | 0.0894 | 1.02 | – | – | – |
| MNKWCTPAWMCEVV (cysteine pairing not given here; also: displayed on phage as pIII fusion) [Phage-2619] | – | – | – | – | Phage binding ELISA signal, Anti-PSMA Fab [5]: 0.998; Phage binding ELISA signal, Anti-PSMA Fab with PSMA antigen [6]: 0.095 |
| VPKWCTPDWMCYGM [Phage-2621] | – | – | – | – | Phage binding ELISA signal, Anti-PSMA Fab [5]: 0.996; Phage binding ELISA signal, Anti-PSMA Fab with PSMA antigen [6]: 0.0681 |
| B23 | – | – | 1.07 | 0.0571 | – |
| B24 | 0.0806 | 1.01 | – | – | – |
| B25 | 0.0682 | 1.02 | – | – | – |
| B26 | 0.0801 | 1.02 | – | – | – |

Source: patent US20260242478A1 (published 2026)
